In US20240026407A1, “MODIFICATION OF SAPONINS” (GLAXOSMITHKLINE BIOLOGICALS SA, priority 2020, published 2024):

B1: 990 (protein, listed as Streptomyces bingchenggensis)
chain: MISRRNLLGTATAAGPALTGLTALAATTGKAEAAEPGYGGLRVEKTTVEYADRPLGLDAPHPRLSWQLGSDRRNQSQSAYQLRVATSPGRIGAPDVWDSGKVSSHQSVLVPYDGPKLRARTRYHWAVRVWDGQGRPSPWSEPTWWETGLGTEDEGAARWVAAPDTVTRGPDLAKADWVWYPEGDPASSAPAGTRYFRGSLDVSGSVRLARLALVADDGFTAWVNGTEIGGRAPVQENWRHPVVVDVTALLREGANTIAVAAVNASSSPAGLLGVLELTDTDGVRSLTTSAAWKATDTEPSGDWHLPAYDDGGWAAAKVLAPWGGGPWGRVRAAQRPALVRRDFRLAAKPVARARLYSTALGLYEAEINGHRVGRDQLAPGWTDYRKRVQYQTYDVTDLLRHGANAIGVILASGWYSGSVAWFGQELYGERPALRAELEVTYADGSTDRVTADTHWRCATGPILTADLMAGEEYDARLEVSGWSSPAFDDSLWQSVDVVPADTTSAVSVVAQTDAPVRVARELAAVRVTEPKPGVYVFDLGQNMVGSVRLRVRGEAGRTVRLRHAEVLDKDGMLYTANLRTAQATDSYTLKGSGTETFEPRFTFHGFRYVEVTGYPGTPDTKSVTGRVMHTGAPFTMSFTTDVPMLDQLHRNITWGQRGNFLSVPTDTPARDERLGWTGDINVFSATAAYTMESARFLAKWLRDLRDGQSDAGAFPDVAPRIGNLGEGTAGWGDAGVTVPWNLYQAYGDRQILADNFPAMRAWITYLEQHSSGCLRPAEGYGDWLNVADETPKDVIATAYFAHSTQLVAKAARVLGHDPAPYDTLAAKVREAFNRAYVSADGTVKGNTQTAYVLALSMDLLPDSARTPAAERLVELIRSKDRHLSTGFLGTPRLLPTLTATGHTDVAYQLLEQRTFPSWGYQIDRGSTTMWERWDSLRPDGSFQDPGMNSFNHYAYGSVGEWMYQNITGIGMGEPGFRSIVIRPRPGGDVHEANGRYDSLYGPITTRWTRANDGAFTLDVSVPVNTTAEVWLPAATSRAASGISHAGATFLRLDDGCAVYGVGSGPYRFTAP
B2: 1073 (protein, listed as Streptomyces scabiei)
chain: MSHERATAEGTSAAARTAHRPHESPVHGLTVEHRTDPLGVDADRPRFGWRTRSASRGWRQGSYQILVATSPELLTPASADVWDSGRVRSADSVAVRYAGVPLRASTRYHWTVRVWNTEGRAAGTASPAVFETGLMSTDGVGGWDGARWIGMKGKVPGSPGAPLLRTRETLGCGDGRTVGDARLYISALGVYEAHVNGERVTVRQDGERTLELLPPGWTNYDARVDYLTYDVTVLLADGPEVTLAVVLGNGWYNGRVSEGSTYHTQSGNALAVKAKLLIRYTDGTTRSVVTGTSGGWKATDTGPFRADDLYDGQTYDARRELPGWTAPGFDDTAWSDVEHIAFEDRYPGVRLRAYPGESARFVDRWDRRPQSVTVITGVTGQDGSPHGRGRVVVDPARTVTDPAKAATAQVTLAAGETAVFDLGQNMVGVPRYGVRGPAGARVEFRFAEILNDDSAGADGPEGSLYRANLRSAKATSTYILKGDPEGETHQDSLTFYGFRHVSVTASETVTVTGLTGRVATSAVRETGTVTTNDPHVDKLASNIRWGQRGNYLWVPTDCPQRDERLGWTGDTQVFAVTGLYNADAYTFLSHFQDTVVDSQAIYGADGAQYTGVAPGGRYNFPGGGSGWADCGVVLPWTLWQMTGDTTVVEDNWPSMVRYLDWIRRQTGDTYAGQGSLTGDWLAPQKTSAQLMSDAYYGYSAHLMARMARAIGRAEEAATYERLFGRIRQAFIARYLSTEGGRVTVRSGLGDASPIEPGSDPNEKTEDNSQSALLWVLKLGFYENEAQRRALVALLADDIRNDAAHKEAHPDSVRVRYPENTLSVGFLGVNILAPVLTDEGRADLAYELLHQDALPSWLFSVKNGATTVWERWNSWAEDAGFGPVGMNSFNHYAYGAIMEWMYAYMAGIARDPDAPGFKRFLLQPHLDPTGRITRVRATHESPYGEILSAWEVGSGGRRLAYDVAVPANSEATLRVPAVSADSVREGGTPLADVAGVRFLGHTEGVSSYLLPSGRYRLSADLR
B3: 1052 (protein, listed as Microbacterium testaceum)
chain: MTTDTRVAAVKAELRTDSPFVATPTPRLTWRVETSTPSWRQASAEITDGATSVPLEGAESALVAWPFAPLEPGERREVRVRVTGVDGAVTAWSAPLAVEAGFLAPDEWVAEPIGLADPEREAQPALVQTAFRLDRPVRRALLLWTALGSAEPEINGRAVSDDVLAPGWSATRDRLVHETVDVTDLLVEGDNVVGATLAGAWYTERYGFFTFTDRIYGDQPAFLAQLRVTFADGTVETVAPTGSAWTATGDAEIVTSGIYAGEHQDLRLRAPWSTPDATTSGTDRRWAPARVGVVARPGHENVPLPEARIAEPVRRHESLPVVARLATPSGGEVLDFGQNLVGRLRLRVRGEAGTTVTIRHAEVLDEGELALRPLRNAKAEASFVLSGGDDVLESRFSFYGFRYAQITGIDVTDAQVEAVVLHSDMERTGWFTSSHALVNRLHENVVWGMRGNFLALPTDCPQRDERLGWTGDLQVFAPTASFLYDCDGFLTSWLRDLALEQERAGGIVPLVIPAALPSFAGGGPVAAWGDAAAVTPTVLHERFGDIGVLAAQYPSMRAWVEAVRADAGDSGLWAGRMQLGDWLDPSAPPDQPGKAKVDGDIVATAYFARSLRQVAEAAALLENTADAETYHALAERSRRAFVSEYVTPAGRMMSDAPTAYALALAFDLVQDAPTRAALADRLAALVRESGYRISTGFVGTPIIADALSDGGHHDAAERLLLQTQCPSWLYPVTQGATTVWERWDSLLPDGSVNPGEMTSFNHYALGAVADWLHRTVAGLAPAAPGYRRLRVAPRPLAAFEHASARHLTAYGPAEVSWEREPGSDVVRVRAIVPPNTTAEVALPGTLADGSEAPAEVGSGTHEWRVTLPAVPVRPPLPGLEAMLADVIDDPRAYAALLDALEETAPERVEGVRSGTVWGAGRPLASALMFTPPDVLARVDRAVRDATA

Experiment: Experiment 6-1: screening of rhamnosidases for derhamnosylation of saponins in treated bark extract (2%), QS-17 2296 to QS-18 2150 (PAR %)
Type: biochemical, Quillaja saponaria
Details: TBE 2%, pH 7.5, 30 degC, 18 h; TIC peak area ratio percent of rhamnosylated starting saponin to derhamnosylated product, LCMS/MS; negative controls 4.876, 5.225
For B1, the “QS-17 (PAR %)” value was 5.144%. In the case of B2, the “QS-17 (PAR %)” value is reported as 0.007%. For B3, the “QS-17 (PAR %)” value was 0.000%.

Experiment: Experiment 6-1: screening of rhamnosidases for derhamnosylation of saponins in treated bark extract (2%), desglucosyl-QS-17 2134 to QS-21 1988 (PAR %)
Type: biochemical, Quillaja saponaria
Details: TBE 2%, pH 7.5, 30 degC, 18 h; TIC peak area ratio percent, LCMS/MS; negative controls 2.719, 2.158
For B1, the “Peak75 (PAR %)” value was 2.151%. For B2, the “Peak75 (PAR %)” value was 0.000%. For B3, the “Peak75 (PAR %)” value was 0.000%.

Experiment: Experiment 6-1: screening of rhamnosidases for derhamnosylation of saponins in treated bark extract (2%), QS-17 2310 to QS-18 2164 (PAR %)
Type: biochemical, Quillaja saponaria
Details: TBE 2%, pH 7.5, 30 degC, 18 h; TIC peak area ratio percent, LCMS/MS; negative controls 3.061, 2.429
In the case of B1, the “Peak57 (PAR %)” value is reported as 0.188%. In the case of B2, the “Peak57 (PAR %)” value is reported as 0.000%. In the case of B3, the “Peak57 (PAR %)” value is reported as 0.000%.

Experiment: Experiment 6-2: screening of rhamnosidases for derhamnosylation of saponins in treated bark extract (25%), relative % of Left, Middle and Right Peak by UV HPLC
Type: biochemical, Quillaja saponaria
Details: TBE 25%, pH 7.4, 19.5 h, mainly QS-17 family, negative control 24%
In the case of B1, the “Left Peak” value is reported as 23%. With B2 the “Left Peak” value was 6%. In the case of B3, the “Left Peak” value is reported as 9%.

Same assay, conditions: TBE 25%, pH 7.4, 19.5 h, mainly QS-18 and desglucosyl-QS-17 family, negative control 50%
With B1 the “Middle Peak” value was 51%. With B2 the “Middle Peak” value was 62%. In the case of B3, the “Middle Peak” value is reported as 62%.

Same assay, conditions: TBE 25%, pH 7.4, 19.5 h, mainly QS-21 family, negative control 26%
For B1, the “Right Peak” value was 26%. For B2, the “Right Peak” value was 31%. With B3 the “Right Peak” value was 30%.

Experiment: Experiment 6-3: screening of rhamnosidases for derhamnosylation of saponins in crude bark extract (80%), relative % of Left, Middle and Right Peak by UV HPLC
Type: biochemical, Quillaja saponaria
Details: CBE 80%, pH 7.4, 30 degC, 19.5 h, mainly QS-17 family, negative control 27%
How it was run: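 Clarified lysates of expressed rhamnosidase variants were incubated with crude bark extract (pH 7.4, final 80%) at 30 degC with shaking for 19.5 h, then quenched with MeCN+2% AcOH. UV HPLC gave relative % of Left (QS-17), Middle (QS-18/desglucosyl-QS-17) and Right (QS-21) peaks.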
With B1 the “Left Peak” value was 25%. In the case of B2, the “Left Peak” value is reported as 20%. With B3 the “Left Peak” value was 25%.

Same assay, conditions: CBE 80%, pH 7.4, 30 degC, 19.5 h, mainly QS-18 and desglucosyl-QS-17 family, negative control 48%
For B1, the “Middle Peak” value was 47%. With B2 the “Middle Peak” value was 52%. With B3 the “Middle Peak” value was 49%.

Same assay, conditions: CBE 80%, pH 7.4, 30 degC, 19.5 h, mainly QS-21 family, negative control 26%
For B1, the “Right Peak” value was 28%. For B2, the “Right Peak” value was 28%. In the case of B3, the “Right Peak” value is reported as 27%.

Experiment: Experiment 6-1: specificity of rhamnosidases towards other rhamnose residues (C3 saccharide rhamnose, C28 saccharide rhamnose)
Type: biochemical, Quillaja saponaria
Details: TBE 2%, pH 7.5, 30 degC, 18 h; LCMS/MS; negative controls 0.18, 0.17
For B1, the “ratio PP/QS-21” value was 0.21. In the case of B2, the “ratio PP/QS-21” value is reported as 0.18. For B3, the “ratio PP/QS-21” value was 0.16.
